Experimental data reported in paper PMC12541460.
One block for each substance: values may come before it.

Columns and labels:
[1] = biological target: Mcm2-7 helicase labeled at the N terminus of Mcm6 with DyLight 650 (Mcm2-7^6N-650), used as Mcm2-7-Cdt1 (S. cerevisiae) (UniProt P29469); assay: FRET or BRET; single-molecule FRET with colocalisation (CoSMoS), Orc6-tether assay: donor DyLight 550 on Orc6 of ORC, acceptor DyLight 650 at the N terminus of Mcm6 of Mcm2-7; origin DNA attached to the slide; 0.5 to 1 nM ORC, 3 to 10 nM Cdc6, 10 to 15 nM Mcm2-7-Cdt1; 25 mM HEPES-KOH pH 7.6, 300 mM potassium glutamate, 5 mM Mg(OAc)2, 3 mM ATP; only events with ORC and Mcm2-7 both on DNA for at least five frames; the high E_FRET state is read as the Orc6N-Mcm2-7N (tether) interaction
[2] = biological target: Mcm2-7^6N-650 in complex with Cdt1 labeled with DyLight 650 (Mcm2-7^6N-650-Cdt1^C-650) (S. cerevisiae) (UniProt P29469)
[3] = biological target: Mcm2-7^6N-650 in complex with Cdt1 labeled with DyLight 650 (Mcm2-7^6N-650-Cdt1^C-650) (S. cerevisiae) (UniProt P29469); remark: listed apart in the source
[4] = biological target: Mcm2-7^6N-650 in complex with Cdt1 labeled with DyLight 650 (Mcm2-7^6N-650-Cdt1^C-650) (S. cerevisiae) (UniProt P29469); remark: listed apart in the source
[5] = biological target: Mcm2-7^6N-650 in complex with Cdt1 labeled with DyLight 650 (Mcm2-7^6N-650-Cdt1^C-650) (S. cerevisiae) (UniProt P29469); assay: FRET or BRET; single-molecule FRET with colocalisation (CoSMoS), Orc6-tether assay: donor DyLight 550 on Orc6 of ORC, acceptor DyLight 650 at the N terminus of Mcm6 of Mcm2-7; origin DNA attached to the slide; 0.5 to 1 nM ORC, 3 to 10 nM Cdc6, 10 to 15 nM Mcm2-7-Cdt1; 25 mM HEPES-KOH pH 7.6, 300 mM potassium glutamate, 5 mM Mg(OAc)2, 3 mM ATP; only events with ORC and Mcm2-7 both on DNA for at least five frames; the high E_FRET state is read as the Orc6N-Mcm2-7N (tether) interaction

Substance: ORC that lacks Orc6N and has the Orc6 lnk1 region scrambled, labeled with DyLight 550 (ORC^6ΔN-lnk1scr-550) (from UniProt P54784 1-914; P32833 1-620; P54790 1-616; P54791 1-529; P50874 1-479; P38826 1-435) (complex)
- ORC molecules released within 7.8 s (three frames) after Cdt1 release [2]: 83%
- ORC molecules retained for more than 100 s on DNA after Cdt1 release (of 106 molecules) [2]: 0
- percent of stably recruited Mcm2-7 that reached the high E FRET (tether) state [1]: 4.4%

Substance: ORC that lacks the Orc6 N-terminal domain, labeled with DyLight 550 (ORC^6ΔN-550) (from UniProt P54784 1-914; P32833 1-620; P54790 1-616; P54791 1-529; P50874 1-479; P38826 1-435) (complex)
- ORC molecules released within 7.8 s (three frames) after Cdt1 release [2]: 80%
- ORC molecules retained for more than 100 s on DNA after Cdt1 release (of 106 molecules) [2]: 1
- percent of stably recruited Mcm2-7 that reached the high E FRET (tether) state [1]: 82.3%

Substance: origin recognition complex labeled at the Orc6 N-terminal region with DyLight 550 (ORC^6N-550), P54784 1-914; P32833 1-620; P54790 1-616; P54791 1-529; P50874 1-479; P38826 1-435
- ORC molecules released within 7.8 s (three frames) after Cdt1 release [2]: 39%
- ORC molecules retained for more than 100 s on DNA after Cdt1 release [2]: 24%
- ORC molecules released within one video frame (~2.6 s) after Cdt1 release, tether interaction present as Cdt1 was released [3]: 25%
- ORC molecules released within one video frame (~2.6 s) after Cdt1 release, tether not present as Cdt1 is released (of 33 molecules) [3]: 16
- median time of ORC retention after Cdt1 release, Orc6 tether interaction absent at the time of Cdt1 release [4]: 3.8 s
- median time of ORC retention after Cdt1 release, Orc6 tether interaction present at the time of Cdt1 release [4]: 23.8 s
- median duration of the Orc6N-Mcm2-7N interaction [1]: 26.4 s
- median time to form the high E FRET state after Mcm2-7-Cdt1 recruitment [1]: 7.2 s
- percent of stably recruited Mcm2-7 that reached the high E FRET (tether) state [1]: 91.5%
- recruitment events in which a high E FRET (tether) state formed (of 162 events) [5]: 152

Results, then the substance that gave them:

- lifetime of the tether interaction, fold shorter than unphosphorylated ORC [1]: 2.5 fold
- median time of tether formation, fold of unphosphorylated ORC [1]: > 2 fold
- percent of recruited Mcm2-7 that exhibited a stable high E FRET (tether) state [1]: 53.9%
Substance: CDK-phosphorylated ORC^6N-550 (Orc2 and Orc6 phosphorylated), P54784 1-914; P32833 1-620; P54790 1-616; P54791 1-529; P50874 1-479; P38826 1-435

- ORC molecules released after 7.8 s after Cdt1 release [2]: 63%
- ORC molecules retained for longer than 100 s after Cdt1 release [2]: 13%
- median lifetime of the tether interaction [1]: 9.7 s
- median time to form the tether interaction, fold of WT ORC [1]: 2 fold
Substance: ORC with the Orc6 lnk1 region (aa 120 to 185) scrambled, labeled with DyLight 550 (ORC^6-lnk1scr-550) (from UniProt P54784 1-914; P32833 1-620; P54790 1-616; P54791 1-529; P50874 1-479; P38826 1-435) (complex)
